Columns and labels:
[1] = target: tnr6c_human TNRC6C (UniProt Q9HCJ0)
[2] = target: tnr6b_human TNRC6B (UniProt Q9UPQ9)
[3] = target: tnr6b_mouse Tnrc6b (UniProt Q8BKI2)
tnr6b_mouse Tnrc6b, sequence (Q8BKI2 whole entry): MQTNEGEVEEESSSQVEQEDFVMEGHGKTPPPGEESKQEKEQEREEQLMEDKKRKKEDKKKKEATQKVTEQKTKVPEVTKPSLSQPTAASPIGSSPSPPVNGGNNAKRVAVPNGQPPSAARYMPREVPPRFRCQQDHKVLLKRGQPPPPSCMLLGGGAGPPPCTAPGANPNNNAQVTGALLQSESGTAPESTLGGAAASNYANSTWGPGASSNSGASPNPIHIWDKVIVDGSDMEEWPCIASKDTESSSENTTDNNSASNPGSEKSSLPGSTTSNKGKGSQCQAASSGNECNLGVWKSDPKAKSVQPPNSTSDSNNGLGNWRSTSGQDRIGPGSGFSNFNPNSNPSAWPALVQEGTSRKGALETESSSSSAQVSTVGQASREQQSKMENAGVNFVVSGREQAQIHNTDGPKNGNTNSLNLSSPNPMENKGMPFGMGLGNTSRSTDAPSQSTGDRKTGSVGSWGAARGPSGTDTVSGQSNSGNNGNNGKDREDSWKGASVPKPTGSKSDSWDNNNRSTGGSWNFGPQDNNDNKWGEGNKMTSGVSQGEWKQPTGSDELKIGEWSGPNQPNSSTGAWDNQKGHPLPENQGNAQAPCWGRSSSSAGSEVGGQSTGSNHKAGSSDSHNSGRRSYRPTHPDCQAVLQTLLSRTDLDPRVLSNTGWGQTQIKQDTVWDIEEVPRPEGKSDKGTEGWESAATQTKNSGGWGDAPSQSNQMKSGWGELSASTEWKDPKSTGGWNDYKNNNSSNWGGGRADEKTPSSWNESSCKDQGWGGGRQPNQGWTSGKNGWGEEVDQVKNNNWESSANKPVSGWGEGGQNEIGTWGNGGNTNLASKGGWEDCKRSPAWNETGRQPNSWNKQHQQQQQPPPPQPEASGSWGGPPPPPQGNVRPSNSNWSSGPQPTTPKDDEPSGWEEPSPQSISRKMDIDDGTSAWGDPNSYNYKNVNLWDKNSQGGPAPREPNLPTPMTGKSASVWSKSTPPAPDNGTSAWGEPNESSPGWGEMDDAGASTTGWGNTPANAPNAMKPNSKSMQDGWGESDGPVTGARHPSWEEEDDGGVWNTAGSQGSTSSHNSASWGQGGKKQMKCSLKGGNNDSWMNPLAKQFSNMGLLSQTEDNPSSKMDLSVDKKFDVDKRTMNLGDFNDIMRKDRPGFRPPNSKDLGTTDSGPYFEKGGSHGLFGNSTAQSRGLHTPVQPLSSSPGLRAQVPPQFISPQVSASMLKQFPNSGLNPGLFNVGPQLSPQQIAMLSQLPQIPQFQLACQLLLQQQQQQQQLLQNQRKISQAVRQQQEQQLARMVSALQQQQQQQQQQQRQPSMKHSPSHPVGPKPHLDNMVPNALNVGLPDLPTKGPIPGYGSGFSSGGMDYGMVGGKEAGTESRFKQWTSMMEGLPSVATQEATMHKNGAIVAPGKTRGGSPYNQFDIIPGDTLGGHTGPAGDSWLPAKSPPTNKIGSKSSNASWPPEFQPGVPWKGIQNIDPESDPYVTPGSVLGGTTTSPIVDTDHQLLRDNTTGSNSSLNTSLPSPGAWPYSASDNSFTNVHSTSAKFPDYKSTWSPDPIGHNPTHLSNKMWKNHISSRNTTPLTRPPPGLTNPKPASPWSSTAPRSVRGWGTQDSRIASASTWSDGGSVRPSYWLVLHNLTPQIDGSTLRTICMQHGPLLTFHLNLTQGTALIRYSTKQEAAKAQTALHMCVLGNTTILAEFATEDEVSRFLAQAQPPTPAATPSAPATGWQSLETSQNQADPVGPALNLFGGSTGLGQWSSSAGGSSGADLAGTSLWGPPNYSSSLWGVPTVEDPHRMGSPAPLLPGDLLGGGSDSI

Protein argonaute-2 (Homo sapiens), Q9UKV8 F470V;F505V, sequence (Q9UKV8 whole entry F470V/F505V): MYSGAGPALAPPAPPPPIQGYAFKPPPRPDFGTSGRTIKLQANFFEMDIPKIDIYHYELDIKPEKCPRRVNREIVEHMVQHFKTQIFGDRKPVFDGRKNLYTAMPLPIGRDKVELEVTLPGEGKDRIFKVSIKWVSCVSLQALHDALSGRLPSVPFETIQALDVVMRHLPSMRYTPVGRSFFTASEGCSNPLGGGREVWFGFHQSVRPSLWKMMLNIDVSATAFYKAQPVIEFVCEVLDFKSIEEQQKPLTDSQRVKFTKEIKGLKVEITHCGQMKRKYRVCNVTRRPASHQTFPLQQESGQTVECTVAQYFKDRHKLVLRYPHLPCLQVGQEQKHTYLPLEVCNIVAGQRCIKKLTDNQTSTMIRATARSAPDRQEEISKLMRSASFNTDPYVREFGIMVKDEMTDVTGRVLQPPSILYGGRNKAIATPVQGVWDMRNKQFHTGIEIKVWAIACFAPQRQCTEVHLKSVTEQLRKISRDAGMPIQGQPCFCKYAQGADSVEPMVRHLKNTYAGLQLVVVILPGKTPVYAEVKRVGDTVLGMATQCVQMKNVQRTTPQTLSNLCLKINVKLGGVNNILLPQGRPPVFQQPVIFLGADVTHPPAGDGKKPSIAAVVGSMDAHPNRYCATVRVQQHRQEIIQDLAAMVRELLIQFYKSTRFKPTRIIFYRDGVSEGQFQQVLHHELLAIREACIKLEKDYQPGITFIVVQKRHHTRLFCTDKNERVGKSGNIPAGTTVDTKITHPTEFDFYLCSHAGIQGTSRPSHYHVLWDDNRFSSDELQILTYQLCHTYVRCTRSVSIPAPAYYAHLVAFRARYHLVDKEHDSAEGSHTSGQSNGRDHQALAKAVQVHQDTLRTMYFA
tnr6c_human TNRC6C, sequence (Q9HCJ0 whole entry): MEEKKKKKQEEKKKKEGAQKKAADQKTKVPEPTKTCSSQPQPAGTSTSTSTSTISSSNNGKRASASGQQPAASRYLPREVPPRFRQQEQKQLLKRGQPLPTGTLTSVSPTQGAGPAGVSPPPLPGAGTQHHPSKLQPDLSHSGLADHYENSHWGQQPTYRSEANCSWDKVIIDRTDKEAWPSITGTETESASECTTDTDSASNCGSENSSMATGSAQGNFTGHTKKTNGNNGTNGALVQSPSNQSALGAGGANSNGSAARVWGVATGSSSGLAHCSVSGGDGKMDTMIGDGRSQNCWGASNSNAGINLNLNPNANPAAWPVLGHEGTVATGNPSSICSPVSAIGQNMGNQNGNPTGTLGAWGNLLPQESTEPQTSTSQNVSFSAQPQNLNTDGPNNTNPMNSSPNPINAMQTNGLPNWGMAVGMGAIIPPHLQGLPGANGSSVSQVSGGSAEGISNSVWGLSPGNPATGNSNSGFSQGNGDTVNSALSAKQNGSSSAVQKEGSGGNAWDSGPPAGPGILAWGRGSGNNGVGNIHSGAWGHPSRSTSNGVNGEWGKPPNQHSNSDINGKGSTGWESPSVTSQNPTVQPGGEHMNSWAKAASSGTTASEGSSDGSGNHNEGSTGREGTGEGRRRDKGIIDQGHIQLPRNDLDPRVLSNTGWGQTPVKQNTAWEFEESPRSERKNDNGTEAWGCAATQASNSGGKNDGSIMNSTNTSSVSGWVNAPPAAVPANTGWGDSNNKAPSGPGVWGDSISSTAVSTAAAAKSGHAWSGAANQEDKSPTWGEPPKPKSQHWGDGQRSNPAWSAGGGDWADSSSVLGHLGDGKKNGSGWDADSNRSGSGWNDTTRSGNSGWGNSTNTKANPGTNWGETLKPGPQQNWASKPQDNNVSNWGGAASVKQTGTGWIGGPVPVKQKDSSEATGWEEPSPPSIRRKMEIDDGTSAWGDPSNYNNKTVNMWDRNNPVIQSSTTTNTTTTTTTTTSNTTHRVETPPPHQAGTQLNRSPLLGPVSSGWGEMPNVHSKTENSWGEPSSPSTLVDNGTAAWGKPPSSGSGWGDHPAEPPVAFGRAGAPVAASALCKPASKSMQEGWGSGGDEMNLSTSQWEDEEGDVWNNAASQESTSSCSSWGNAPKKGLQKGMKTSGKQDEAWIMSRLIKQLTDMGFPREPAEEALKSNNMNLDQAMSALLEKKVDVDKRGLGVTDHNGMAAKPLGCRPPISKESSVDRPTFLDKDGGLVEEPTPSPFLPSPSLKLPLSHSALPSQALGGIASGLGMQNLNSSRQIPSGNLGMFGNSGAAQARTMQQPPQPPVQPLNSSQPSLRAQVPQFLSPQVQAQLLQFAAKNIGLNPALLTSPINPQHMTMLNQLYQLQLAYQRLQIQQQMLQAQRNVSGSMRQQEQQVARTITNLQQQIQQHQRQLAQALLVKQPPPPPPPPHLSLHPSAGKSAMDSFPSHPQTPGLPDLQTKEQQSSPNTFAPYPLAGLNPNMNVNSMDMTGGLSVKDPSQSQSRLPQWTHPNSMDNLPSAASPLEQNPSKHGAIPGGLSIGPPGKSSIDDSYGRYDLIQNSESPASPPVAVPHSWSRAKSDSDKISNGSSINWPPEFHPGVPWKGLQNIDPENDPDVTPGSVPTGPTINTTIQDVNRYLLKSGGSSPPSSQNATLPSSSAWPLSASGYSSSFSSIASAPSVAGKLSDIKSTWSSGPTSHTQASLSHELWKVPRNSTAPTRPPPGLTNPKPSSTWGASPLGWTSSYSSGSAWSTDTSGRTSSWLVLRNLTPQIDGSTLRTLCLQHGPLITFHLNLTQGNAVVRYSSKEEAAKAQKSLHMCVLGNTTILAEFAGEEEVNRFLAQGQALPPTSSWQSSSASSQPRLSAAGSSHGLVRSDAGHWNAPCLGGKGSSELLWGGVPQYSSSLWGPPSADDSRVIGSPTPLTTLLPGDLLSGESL

effect of a mutation on the interaction [1]: disrupting interaction
effect of a mutation on the interaction [2]: disrupting interaction
effect of a mutation on the interaction [3]: disrupting interaction
Substance: Protein argonaute-2 (Homo sapiens), Q9UKV8 F470V;F505V

Reference: IntAct's records for PubMed 19838187
